Assay results published in patent US20240343818A1, “Antibodies Having Humanized Framework Regions” (priority 2021, published 2024).
Where a chain is given by its changes, count along the chain named.

B1: VH4/VL4 antibody (antibody, V domains shown)
VH: QVQLVQSGAEVKKPGASVKVSCKASGYTFTDYYITWVRQAPGQGLEWMGWIYPGSGNTKYNEKFKGRVTITVDTSASTAYMELSSLRSEDTAVYYCANYGNYWFAYWGQGTLVTVSS
VL: DIVLTQSPDSLAVSLGERATINCKASQSVDFDGDSYMNWYQQKPGQPPKLLIYAASNRESGVPDRFSGSGSGTDFTLTISSLQAEDVAVYYCQQSNEDPWTFGGGTKVEIK
B2: H1/L4 (conjugate)
VH: QVQLQQSGPEVVKPGASVKVSCKASGYTFTDYYMTWVRQKPGQGLEWMGWIYPGSGNTKYNQKFKGRVTITVDTSSSTAFMELSSLTSEDTAVYFCANYGNYWFAYWGQGTQVTVSA
VL: B1 VL
B3: H4/L2 (conjugate)
VH: B1 VH
VL: B1 VL with L4M, D9A, N22S, A25S, M37L, N57T, D64A, A84E, V89T
B4: H4/L4 (conjugate)
VH: B1 VH
VL: B1 VL

What was measured:
L-82 xenograft = L-82 xenograft with CD30 ADCs; format: in vivo, mice
Experimental: Female NOD/SCID mice were used (8 mice/group) for the study. Animals were inoculated subcutaneously in the flank with 10 million cells in 50% PBS/50% Matrigel. When tumors reached an average volume of 100 mm^3, all animals were treated (Day 0) with a single 10 mg/kg intravenous dose of human IgG. Then, on Day 1, animals were treated with vehicle alone, with unconjugated antibody (3 mg/kg), or with an ADC at 1.5 or 3 mg/kg. The animals were monitored twice weekly for body weight and tumor size. Animals were euthanized when tumors reached 2000 mm^3. ADCs were highly efficacious in this study.

Karpas 299 xenograft = Karpas 299 xenograft with CD30 ADCs; format: in vivo, mice
Experimental: Female CB17/SCID mice were used (6 mice/group) for the study. Animals were inoculated subcutaneously in the flank with 5 million cells in PBS. When tumors reached an average volume of 214 mm^3, animals were treated with vehicle alone, with unconjugated antibody (3 mg/kg), or with an ADC at 1.5 or 3 mg/kg. The animals were monitored twice weekly for body weight and tumor size. Animals were euthanized when tumors reached 2000 mm^3. ADCs were highly efficacious in this study.

[1] = Melting temperature by differential scanning fluorimetry; format: physicochemical
[2] = Forced stability of ADCs, high-molecular weight species by size-exclusion chromatography; format: physicochemical; conditions: for HWM pH 5.5, 3 d 45° C.: pH 5.5, 3 d at 45° C.; for HWM pH 5.5, 3 d −80° C.: pH 5.5, 3 d at −80° C.; for HWM pH 7.2, 3 d 45° C.: pH 7.2, 3 d at 45° C.; for HWM pH 7.2, 3 d −80° C.: pH 7.2, 3 d at −80° C.
Text: ADCs were conjugated at the antibody heavy chain C-terminus to a noncleavable linker bearing a maytansine payload for a DAR of ˜1.9. Samples were placed in buffer at the designated pH and temperature for 3 days, then analyzed by size-exclusion chromatography. HMW, high-molecular weight species.

[3] = single intravenous dose, ADC 1.5 or 3 mg/kg, unconjugated antibody 3 mg/kg
[4] = ADC (heavy chain C-terminus, noncleavable maytansine linker-payload, DAR ~1.9)

Molecule | complete responses (L-82 xenograft; L-82 xenograft, NOD/SCID mice, single intravenous dose 3 mg/kg (equal dosing)) | complete responses (Karpas 299 xenograft; Karpas 299 xenograft, CB17/SCID mice, 6 mice/group, single intravenous dose 3 mg/kg (equal dosing)) | efficacy in L-82 xenograft (L-82 xenograft; [3]) | efficacy in Karpas 299 xenograft (Karpas 299 xenograft; [3]) | Fab Tm [1, 4] [°C] | Fab Tm ([1]; Antibody) [°C] | HWM pH 5.5, 3 d 45° C. [2] [%] | HWM pH 5.5, 3 d −80° C. [2] [%] | HWM pH 7.2, 3 d 45° C. [2] [%] | HWM pH 7.2, 3 d −80° C. [2] [%]
Adcetris: anti-CD30 ADC used as comparator in the xenograft studies [reference compound] | 8 out of 8 mice/group | 6/6 |  |  |  |  |  |  |  | 
B1 |  |  | minimal activity | minimal activity |  |  |  |  |  | 
B2 |  |  |  |  | 80 | 81.17 | 10.05 | 1.66 | 16.42 | 2.90
B3 |  |  |  |  | 73 | 75.54 | 6.18 | 1.24 | 30.38 | 2.37
B4 |  |  |  |  | 82 | 80.43 | 7.70 | 1.66 | 23.28 | 3.14
